Source: IntAct's records for PubMed 17170699

B1: Protein disulfide-isomerase A3 (Homo sapiens), P30101 (parent)
chain: MRLRRLALFPGVALLLAAARLAAASDVLELTDDNFESRISDTGSAGLMLVEFFAPWCGHCKRLAPEYEAAATRLKGIVPLAKVDCTANTNTCNKYGVSGYPTLKIFRDGEEAGAYDGPRTADGIVSHLKKQAGPASVPLRTEEEFKKFISDKDASIVGFFDDSFSEAHSEFLKAASNLRDNYRFAHTNVESLVNEYDDNGEGIILFRPSHLTNKFEDKTVAYTEQKMTSGKIKKFIQENIFGICPHMTEDNKDLIQGKDLLIAYYDVDYEKNAKGSNYWRNRVMMVAKKFLDAGHKLNFAVASRKTFSHELSDFGLESTAGEIPVVAIRTAKGEKFVMQEEFSRDGKALERFLQDYFDGNLKRYLKSEPIPESNDGPVKVVVAENFDEIVNNENKDVLIEFYAPWCGHCKNLEPKYKELGEKLSKDPNIVIAKMDATANDVPSPYEVRGFPTIYFSPANKKLNPKKYEGGRELSDFISYLQREATNPPVIQEEKPKKKKKAQEDL
partner: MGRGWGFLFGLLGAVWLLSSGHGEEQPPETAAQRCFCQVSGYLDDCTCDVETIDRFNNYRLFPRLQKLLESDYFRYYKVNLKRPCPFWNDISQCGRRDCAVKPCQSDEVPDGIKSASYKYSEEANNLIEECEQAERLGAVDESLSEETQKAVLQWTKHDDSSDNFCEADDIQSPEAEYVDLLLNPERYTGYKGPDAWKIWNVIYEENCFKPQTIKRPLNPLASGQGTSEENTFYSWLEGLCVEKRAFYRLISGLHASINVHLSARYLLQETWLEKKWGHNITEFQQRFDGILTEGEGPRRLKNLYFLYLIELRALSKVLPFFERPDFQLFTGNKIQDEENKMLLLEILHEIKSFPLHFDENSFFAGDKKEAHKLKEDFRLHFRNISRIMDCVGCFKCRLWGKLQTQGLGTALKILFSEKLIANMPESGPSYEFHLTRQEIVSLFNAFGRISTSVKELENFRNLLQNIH

Variants of: B1
Settings: with ero1a_human ERO1A

Variant | effect of a mutation on the interaction
C409A | decreasing interaction
